# Experimental data taken from publication PMC4530445, “PDZ interaction of Vangl2 links PSD-95 and Prickle2 but plays only a limited role in the synaptic localisation of Vangl2” (Scientific Reports, 2015).
# B1: hemagglutinin (HA)-Prickle2 (natural protein, UniProt Q80Y24 1-845, looked up)
# chain: MVTVMPLEMEKTISKLMFDFQRSSTSDDDSGCALEEYAWVPPGLKPEQVHQYYSCLPEEKVPYVNSAGEKLRIKQLLHQLPPHDNEVRYCNSLDEEEKRELKLFSNQRKRENLGRGNVRPFPVTMTGAICEQCGGQIKGGDIAVFASRAGHGICWHPPCFVCTVCNELLVDLIYFYQDGKIYCGRHHAECLKPRCAACDEIIFADECTEAEGRHWHMRHFCCFECETVLGGQRYIMKEGRPYCCHCFESLYAEYCDTCAQHIGIDQGQMTYDGQHWHATETCFCCAHCKKSLLGRPFLPKQGQIFCSRACSAGEDPNGSDSSDSAFQNARAKESRRSAKIGKNKGKTEEAMLNQHSQLQVSSNRLSADVDPLSVQMDLLSLSSQTPSLNRDPIWRSREEPFHYGNKMEQNQSQSPLQLLSQCNIRTSYSPGGQGAGAQPDMWAKHFSNPKRSSSMALKGHGGSFIQECREDYYPGRLMSQESYSDMSSQSFNETRGSIPVPKYEEEEEEEEGGISTQQCRPRRPLSSLKYTEDMTPTEQTPRGSMESLALSNATGLSAEGGAKRQEHLSRFSMPDLSKDSGMNVSEKLSNMGTLNSSMQFRSAESVRSLLSAQQYQEMEGNLHQLSNPLGYRDLQSHGRMHQSFDFDGGIASSKLPGQEGVHIQPMSERTRRRTTSRDDNRRFRPHRSRRSRRSRSDNALHLASEREVIARLKERPPLRAREDYDQFMRQRSFQESLGQGSRRDLYSQCPRTVSDLALQNAFGERWGPYFTEYDWCSTCSSSSESDNEGYFLGEPIPQPARLRYVTSDELLHKYSSYGVPKSSTLGGRGQLHSRKRQKSKNCIIS
# notes: Prickle2; source: HEK293T, transfected, in lysate
# Target: T1, GFP-PSD-95 (green fluorescent protein-tagged postsynaptic density-95) (UniProt P31016 1-724)
# T1 construct: postsynaptic density-95 (PSD-95); Printed as GFP-PSD-95 in the results and PSD-95-GFP in the methods; also called PSD-95-GFP; source: HEK293T, transfected, in lysate
# Experiment: co-IP; HEK293T cells cotransfected with HA-Prickle2 and GFP-PSD-95, with or without FLAG-Vangl2 WT or ΔETSV; IP of the lysate with α-GFP Abs, western blot; 1% NP-40, 150 mM NaCl, 50 mM Tris-Cl pH 7.5, 2 mM EDTA, 10% glycerol, on ice or at 4 °C; precipitated Prickle2 (IP/Input) divided by the relative amount of precipitated PSD-95-GFP
# Conditions: partners not purified
# T1 sequence (P31016 whole entry): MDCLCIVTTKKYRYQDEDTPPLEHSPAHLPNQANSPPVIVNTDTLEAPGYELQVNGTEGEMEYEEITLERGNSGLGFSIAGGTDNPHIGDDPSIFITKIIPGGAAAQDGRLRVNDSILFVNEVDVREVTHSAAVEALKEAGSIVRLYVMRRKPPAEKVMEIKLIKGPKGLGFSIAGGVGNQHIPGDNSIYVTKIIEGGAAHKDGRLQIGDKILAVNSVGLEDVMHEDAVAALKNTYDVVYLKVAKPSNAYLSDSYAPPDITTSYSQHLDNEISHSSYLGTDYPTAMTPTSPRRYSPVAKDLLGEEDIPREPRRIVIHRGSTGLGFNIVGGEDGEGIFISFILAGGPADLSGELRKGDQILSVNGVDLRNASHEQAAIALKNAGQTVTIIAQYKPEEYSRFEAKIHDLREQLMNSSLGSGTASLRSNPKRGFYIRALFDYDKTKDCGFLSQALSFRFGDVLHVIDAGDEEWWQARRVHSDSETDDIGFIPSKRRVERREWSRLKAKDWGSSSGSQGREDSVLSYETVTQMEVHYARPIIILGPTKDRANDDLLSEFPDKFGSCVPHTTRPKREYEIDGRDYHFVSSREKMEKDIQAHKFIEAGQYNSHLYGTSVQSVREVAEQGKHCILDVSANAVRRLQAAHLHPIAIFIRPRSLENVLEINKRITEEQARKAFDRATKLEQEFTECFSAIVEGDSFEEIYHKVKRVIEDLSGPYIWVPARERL
binder,measurement,value
B1,"fold increase of the precipitated amount of Prickle2 with FLAG-Vangl2 co-expressed, against without Vangl2",63.6 fold
